Experimental data as given in the nanobody polyreactivity screen of Harvey et al. (2022).

Assay: yeast display, Sf9 membrane polyspecificity reagent, FACS + sequencing; frameworks hold sequencing errors
How it was run: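 Sorting gates, low and high (top ~1%), were placed on anti-HA fluorescence to track expression and on streptavidin fluorescence to track reagent binding. A clone's polyreactivity label is taken from the gate it came out of. The reagent was 10% biotinylated, detergent-solubilized Sf9 membrane, applied for 1 hour at 4 °C to galactose-induced yeast display cells.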

Row | Sequence | polyreactivity (PSR sort gate)
1 | QVQLVESGGGLVQAGGSLRLSCAASGSNFRYYAMGWYRQAPGTERELVADISSGGSTYYADSVKGRFTISRDNAKNTVYLQMNRLKPEDTAVYYCKADYYAYPWTNDYWGQGTQVTVSS | high polyreactivity
2 | QVQLVESGGGLVQAGGSLRLSCAASGSNFSSYALGWYRQAPGKERELVAAITSGGSTYYADSVKARFTISRDNAKNTVYLQMNSLKPEDTAVYYCNADISRDNDFDYWGQGTQVTVSS | low polyreactivity
3 | QVQLVESGGGLVQAGGSLRLSCAASGSNFSSYAMGWYREAPGKERELVAAIDGSGGSTYADSVKGRFTISRDNAKNTVYLQMNSLKPEDTAVYYCAVDSFLVYSAVRPYDYWGQGTQVTVSS | low polyreactivity
4 | QVQLVESGGGLVQAGGSLRLSCAASGSNFSTYVMGWYRQAPGKERELVATISASDGSTYYADSVKGRFTISRDNAKNTVYLQMNSLKPEDSAVYYCAADTQEYRPTYDYWGQGTQVTVSS | low polyreactivity
5 | QVQLVESGGGLVQAGGSLRLSCAASGSNFSYYDMGWYRQAPGKERELVAAISWNGGTTYYADSVKGRFTISRDNAKNTVYLQMNSLKPEDTAVYYCAATWDFYWAPYDSWGQGTQVTVSS | low polyreactivity
6 | QVQLVESGGGLVQAGGSLRLSCAASGSNFSYYTMGWYRQAPGKERELVAAISTSGGSTYYADSVKGRFTISRDNAKNTVYLQMNSLKPEDTAVYYCAARYGRYYKYNYWGQGTQVTVSS | high polyreactivity
7 | QVQLVESGGGLVQAGGSLRLSCAASGSNFTQYAMGWYRQAPGTERELVAAISSGTRTYYADSVKGRFTISRDNAKNTVYVQMNSLKPEDTAVYYCAARYRSYFYWSGYWGHGTQVTVSS | low polyreactivity
8 | QVQLVESGGGLVQAGGSLRLSCAASGSNFTSYAMGWYRQAPGKERELVAAISKSGGSTYYADSVKGRFTISRDNAKNTVYLQMNSLKPEDTAVFYCAARYNVRSYTTSRFDYWGQGTQVTVSS | low polyreactivity
9 | QVQLVESGGGLVQAGGSLRLSCAASGSNFTVYAMGWYRQAPGKDGELVAAISYNGGCTYYADSVKGRFTISRDNAKNTVYLQMNSLKPEDTAVYYCAARYRDRGRRAEYEYWGQGTQVTVSS | high polyreactivity
10 | QVQLVESGGGLVQAGGSLRLSCAASGSNFVPYTMGWYRQAPGKERELVASISYSVGTTYYADSVKGRFTISRDNAKNTVYLQMNSLKPEDTAVYYCAADWDESYSYRRYRHYDYWGQGTQVTVSS | low polyreactivity
11 | QVQLVESGGGLVQAGGSLRLSCAASGSNFVYNAMGWYRPAPGKERELVAAITGRVGSTYYADSVKGRFTISRDNAKNTVYLQMISLKPEDTAVYYCAARSYFKWWYAMDYWGQGTQVSVSS | high polyreactivity
12 | QVQLVESGGGLVQAGGSLRLSCAASGSNFYFYAMGWYRQAPGKERELVAAISFTDTSTYYADSVKGRFTISRDNAKNTVYLQMNSLKPEDTAVYYCAADFTQYYYWTRYEYWGQGTQVTVSS | high polyreactivity
13 | QVQLVESGGGLVQAGGSLRLSCAASGSNIGWNTMGWYRQAPGKERELVAAITSGGRTYYADSVKGRFTISRDNAKNTVYLQINSLKPEDTAVYYCKAVVRHTYRRFDYWGQGTQVTVSS | high polyreactivity
14 | QVQLVESGGGLVQAGGSLRLSCAASGSNIGWYAMGSYRQAPGKERELVAAISSSDGSTYYADSVKGRFTISRDNAKNTVYLQMNSLKPEDTAVYYCATDSDFTYAQYDYWGQGTQVTVSS | low polyreactivity
15 | QVQLVESGGGLVQAGGSLRLSCAASGSNISNYVMGWYRQAPWKERELVAAITRRGGRTYYADSVKGRFTISRDYAKNTFYLQMNSLKPEDTAVYYCAKRHVGSRYLFEYWGQGTQVTVSS | low polyreactivity
16 | QVQLVESGGGLVQAGGSLRLSCAASGSNITTYAMGWYRQAPGKERELVAAITDTSSTNYADSVKGRFTISRDNAKNTVYLQMNSLKPEVTAVYYCAVDLGYEYDWGQGTQVTVSS | low polyreactivity
17 | QVQLVESGGGLVQAGGSLRLSCAASGSNIYVYAMGWYRQAPGKERELVAAISSSSDSTYADSVKGRFTISRDNAKNTVYLQMNSLKPEDTAVYYCNKKNAVYFAYDYWGQGTQVTVSS | low polyreactivity
18 | QVQLVESGGGLVQAGGSLRLSCAASGSNSSFYAMGWYRQAPGKERELVAGITSGGSTNYADSVKGRFTISRDNAKNTVYLQLNSLKPEDTAVYYCAAERTPSFRAYDYWGQGTLVTVSS | low polyreactivity
19 | QVQLVESGGGLVQAGGSLRLSCAASGSNYSGYTMGWYRQAPGKERELVAAISYRGGRTYYADSVKGRFTISRDNAKNTVYFLMNSLKPEDTAVYYCNAAPYITRRHDYWGQGTLVTVSS | high polyreactivity
20 | QVQLVESGGGLVQAGGSLRLSCAASGSNYYVYPMGWYRQAPGKERELVATISTGGSTYYADSVKGRFTISRDNAKNTVYLQMNSLKPEDTAVYYCNAQITPRYWGGYDSWGQGTQVTVSS | low polyreactivity
21 | QVQLVESGGGLVQAGGSLRLSCAASGSPFFRNAMGWYRPAPGTERELVADISASGGSTYYADSVKGRFTLSRDNAKNTVNLQMNSLKPEDTAVYSCNALYIYSYNYLTMDYWGQGTQVTVSS | low polyreactivity
22 | QVQLVESGGGLVQAGGSLRLSCAASGSPFSSYVMGWYRQAPGTERELVAAISSIGGSTYSADSVKGRFTISRDNAKNTVFLQLNSLKPEDTAVYYCNALYDVWITLHTYTSSDYWGEGTQVTVSS | low polyreactivity

Row | Sequence | polyreactivity (PSR sort gate)
23 | QVQLVESGGGLVQAGGSLRLSCAASGSSFDVYTMGWYRQAPGKERELVAAINTGGGSTYYADSVKGRFTISRDNAKNTVYLQMNSLKPEDTAVYYCAASVYHYGPLYYWGQGTQVTVSS | low polyreactivity
24 | QVQLVESGGGLVQAGGSLRLSCAASGSSFGRYVMGSYRPAPGKERELVAAIRSRGGSTYYADSVKGRFTISRDIAKNTVYLQMNSLKPEYTAVYYCNDVDRKPYRTYDYWGQGTQVTVSS | high polyreactivity
25 | QVQLVESGGGLVQAGGSLRLSCAASGSSFGWYGMGWYRQAPGKERELVASINWRGSSTYYADSVKGRFTISRDNSKNTVYLQMNSLKPEDTAVYYCATTRDWAYNYWGQGTQVTVSS | low polyreactivity
26 | QVQLVESGGGLVQAGGSLRLSCAASGSSLDYYAMGWSRQAPGKERDLLAAITWSGGRTSYADSVTGRFTISRDNAKNTVYLQMNSLKPEDTAVYYGAAESFLYLLDRASGWQYEYWGQGTQVSVSS | low polyreactivity
27 | QVQLVESGGGLVQAGGSLRLSCAASGSTCARNSMGWYRQAPGKERELVAAISYSGGTTYYADSVKGRFTISRDNAKNTVYLQRNSLKPEDTAVSYCAKWEGHGRNPWGAGTEGDYWGQGTQVTVSS | low polyreactivity
28 | QVQLVESGGGLVQAGGSLRLSCAASGSTCWFYAMGWYRQAPGKEREVVATITSGGNTTYADSVKGRFTISRDNAKNTVYLQMNSLKPEDTAVYYCAAGWQAPWGYYYHFEYDYWGQGTQVTVSS | low polyreactivity
29 | QVQLVESGGGLVQAGGSLRLSCAASGSTCWSYAMGWYRQAPGKERELVATITRAGTTNYADSVKGRFTISRDNAKNTVSLQRNSLNPEDTAVYYCAKRIFRWPYQGSYSFIPFGYWGQGTQVTVSS | high polyreactivity
30 | QVQLVESGGGLVQAGGSLRLSCAASGSTFAANAMGWYRQAPGKERELVAVIRRGGSTTYADSVKGRFTISRDNAKNTVYLLMNSLKPEDTAVYYCNARVTLGRPLFTYLVRYEYWGQGTQVTVSS | high polyreactivity
31 | QVQLVESGGGLVQAGGSLRLSCAASGSTFAAYVMGWYRQAPGKERELVAAITKSGSSTYYADSVKGRFTISRDNAKNTVYLQMNSLKPEDTAVEYCAAYPVRVLYDYWGQGTQVTVSS | high polyreactivity
32 | QVQLVESGGGLVQAGGSLRLSCAASGSTFADYAMGWYRQAPGKERELVAAISWSGGRTYYADSVKGRFTISRDNAKNTVYLQMNSLKPEDTAVYYCAAGFGDGPGNGYYTRYSWDDDYWGQGTQVTVSS | low polyreactivity
33 | QVQLVESGGGLVQAGGSLRLSCAASGSTFAEYAMGWYRQAPGKERELVAAIRWSGGSTSYADSVKGRFTMSRDNAKHTVYLQMNSLKPEDTAVYYCAAERFWYDGAVKLYVLSYYWGQGTQVTVSS | low polyreactivity
34 | QVQLVESGGGLVQAGGSLRLSCAASGSTFAEYVMGWYRQAPGKERELVAAISSGTSTYYADSVKGRFTISRDNAKNTVYLQMNSLKPEDTAVYYCNDDLYHTWYKPEYDYWGQGTQVTVSS | low polyreactivity
35 | QVQLVESGGGLVQAGGSLRLSCAASGSTFAFNAMGWYRQAPGKEREFVARITWSDGSTYYADSVKGRFTISRDNAKNSVYLQMNSLKPEDTAVYYCARDPTEQAIARWTYDYWGQGTQVTVSS | low polyreactivity
36 | QVQLVESGGGLVQAGGSLRLSCAASGSTFAFYAMGWYRQAPGKERELVAAISRSGGRTYYADSVKGRFTISRDNAKNTVYLQMNSLKPEDTAVYYCAAVFRSGYLRYYYWGQGTQVTVSS | high polyreactivity
37 | QVQLVESGGGLVQAGGSLRLSCAASGSTFAFYDMGWYRQAPGKERELVAAISPSDGDTYYADSVKGRFTISRDNAKNTVYLQMNSLKPEDTAVYYSAAETSHNPEYERGSDYWGQGTQVTVSS | low polyreactivity
38 | QVQLVESGGGLVQAGGSLRLSCAASGSTFAGNAMGWYRQAPGKERESVAAIDSSTGSTYYADSVKGRFTISRDNAKNTVYLQMTSLKPEDTAVYYCNKTSFLVKLDYWGQGTHVTVSS | low polyreactivity
39 | QVQLVESGGGLVQAGGSLRLSCAASGSTFAHYTMGWYRQAPGKERELVAAITRSGGSTYYADSVKGRFTISRDNAKNKVYLQMNSLKPEDTAVYYCAATRQWNILRYDYWGQCTQVTVSS | low polyreactivity
40 | QVQLVESGGGLVQAGGSLRLSCAASGSTFAIYAMGLYRQAPGKERELVAAITRSGGNTYYAESVKGRFTISRDNAKNTVYLQMNSLKPEDTAVYYCNAETYYWSAYAQYEYWGQGTQVTVSS | high polyreactivity
41 | QVQLVESGGGLVQAGGSLRLSCAASGSTFAIYAMGWYRQAPGKERELVAAITRGSTSYADSVKGRFTISRDNAKNTVYLQMNSLKPEDTAVYYCAADSSRYGVIRDFDYWGQGTQVTVSS | high polyreactivity
42 | QVQLVESGGGLVQAGGSLRLSCAASGSTFAKNAMGWYRQAPGKERELVAAITYSGGSTYYADSVKGRFTISRDNAKNTVYLQMNSLKPEDTAVYFCASDVWWSDYRYDYWGQGTQVTVSS | low polyreactivity
43 | QVQLVESGGGLVQAGGSLRLSCAASGSTFAKNAMGWYRQAPGKERQLVAAITYSGGSTYYADSVKGRFTISRDNAKNTVYLQMNSLKPEDTAVYYCAADVWWSYYRYDYWGQGTQVTVSS | low polyreactivity
